Biological target: PR8-PB1-GST (influenza A virus A/Puerto Rico/8/1934 …, UniProt P03431 1-757)
Assay: pull-down
Details: both partners purified

B1: TRIM32-HIS (natural protein, human, UniProt Q13049 1-653, looked up)
chain: MAAAAASHLNLDALREVLECPICMESFTEEQLRPKLLHCGHTICRQCLEKLLASSINGVRCPFCSKITRITSLTQLTDNLTVLKIIDTAGLSEAVGLLMCRSCGRRLPRQFCRSCGLVLCEPCREADHQPPGHCTLPVKEAAEERRRDFGEKLTRLRELMGELQRRKAALEGVSKDLQARYKAVLQEYGHEERRVQDELARSRKFFTGSLAEVEKSNSQVVEEQSYLLNIAEVQAVSRCDYFLAKIKQADVALLEETADEEEPELTASLPRELTLQDVELLKVGHVGPLQIGQAVKKPRTVNVEDSWAMEATASAASTSVTFREMDMSPEEVVASPRASPAKQRGPEAASNIQQCLFLKKMGAKGSTPGMFNLPVSLYVTSQGEVLVADRGNYRIQVFTRKGFLKEIRRSPSGIDSFVLSFLGADLPNLTPLSVAMNCQGLIGVTDSYDNSLKVYTLDGHCVACHRSQLSKPWGITALPSGQFVVTDVEGGKLWCFTVDRGSGVVKYSCLCSAVRPKFVTCDAEGTVYFTQGLGLNLENRQNEHHLEGGFSIGSVGPDGQLGRQISHFFSENEDFRCIAGMCVDARGDLIVADSSRKEILHFPKGGGYSVLIREGLTCPVGIALTPKGQLLVLDCWDHCIKIYSYHLRRYSTP
notes: also called HIS-TRIM32; HIS-tagged TRIM32
- binding result: binds
